Source: publication PMC4041440, “Structural and biophysical characterization of Staphylococcus aureus SaMazF shows conservation of functional dynamics” (Nucleic Acids Research, 2014)

Biological target: the molecule itself
Test: SEC; analytical gel filtration, Superdex HR75 10/30, 20 mM Tris-HCl pH 8.0, 250 mM NaCl, SaMazF at 3.3 mg/ml; apparent molecular weight about 31 500 Da

B1: Staphylococcus aureus MazF toxin (SaMazF), N-terminally His-tagged (enzyme)
chain: IRRGDVYLADLSPVQGSEQGGVRPVVIIQNDTGNKYSPTVIVAAITGRINKAKIPTHVEIEKKKYKLDKDSVILLEQIRTLDKKRLKEKLTYLSDDKMKEVDNALMISLGLNAVAHQKN
notes: SaMazF, the MazF toxin (ribonuclease) of the Staphylococcus aureus mazEF module; wild type; 13C15N-labelled for the NMR experiments; The models number the tag's last residues Gln-1, Asp0, Pro1, so the tag's Pro may stand at position 1 of SaMazF in place of Met1; The measured mass is 14 794 Da, for the chain with the tag and without the N-terminal methionine; also called SaMazF2 (the dimer); …
stoichiometry N: 2
